Laboratory results as given in patent publication US11827911B2, “Chimeric bacteriophage lysin with activity against Staphylococci bacteria” (priority 2008, dated 2023).

Experiments:
[1] = Solubility of expressed lysins and chimeras
Protocol: In another embodiment, the lysin is a chimeric protein that comprises an endopeptidase domain of the S. aureus Twort lysin upstream of the phiNM3 CWT domain (SEQ ID NO:1). The chimeric polypeptide is preferably sufficiently soluble in phosphate buffered saline (PBS). Preferred levels of solubility in PBS for the chimeric lysins is at least about 1 mg/ml and more preferably at least about 3 mg/mL. in PBS. […] One example of such a lysin is provided in SEQ ID NO:2 (AD127), shown in FIG. 5A and consisting of the Twort lysin endopeptidase domain attached to the phiNM3 CWT domain (SEQ ID NO:1). The isolated polypeptide of SEQ ID NO:2 (AD 127) was constructed by engineering S. epidermidis autolysin amidase and Twort lysin endopeptidase domains upstream of phiNM3 CWT domain, respectively.
Traditionally, Bacillus-specific lysins are expressed at high levels and are soluble in E. coli. Therefore, our first attempt was to engineer a 16-amino acid peptide (4) that is conserved in several S. aureus-specific lysins (Lu J Z, Fujiwara T, Komatsuzawa H, Sugai M, Sakon J. 2006. Cell wall-targeting domain of glycylglycine endopeptidase distinguishes among peptidoglycan cross-bridges. (Lue et al. (2006) J. Biol. Chem. 281(1):549-58) The catalytic domain of the Bacillus-specific lysin PlyB was used to generate chimera AD 103 (FIG. 4) (SEQ ID NO: 13). The chimeras were tested for expression, solubility and activity. Then the entire C-terminal CWT domain of PlyB (6) was replaced by the putative C-terminal domain of S. aureus phage Twort lysin (8) to obtain AD 105 (SEQ ID NO: 14). […] Since the lysostaphin catalytic domain […] (10) in AD 112 was of bacterial origin, we attempted to engineer a phage-derived catalytic domain upstream of the lysostaphin CWT. For this, the endopeptidase domain in Twort lysin (14) was used to construct chimera AD 119 (SEQ ID NO:3).

[2] = test system: S. aureus strains (MSSA and MRSA); experiment: Muralytic activity on bacterial strains, Set I; type: cell-based, Staphylococcus aureus; details: 50 U of ClyS, 15 minutes
Protocol: (§1) Muralytic activity of ClyS was tested on a number of bacterial strains representing a variety of species which were divided into sets (Table 1 and FIG. 10). Set I consisted of S. aureus strains including methicillin-sensitive S. aureus (MSSA) and MRSA. ClyS was active against MSSA and MRSA although differences were observed between S. aureus strains. Set II consisted of different species of staphylococci including S. epidermidis, S. simulans and S. sciuri. […] Set III consisted of a mix of Gram-positive and Gram-negative bacteria including representatives of group A, B, C and E streptococci, oral streptococcal species including S. gordonli, and S. salivarius, as well as S. uberis, Bacillus cereus, Pseudomonas aeruginosa and E. coli.
(§2) The viability assay of ClyS was tested as previously described (Nelson et al, 2001). Briefly, log phase cultures of S. aureus strain 8325-4 were resuspended in PB to OD600 of 0.8-1.0. 50 U of ClyS or the corresponding volume of PB was added to bacterial cells and aliquots were removed, serially diluted, and plated at 1, 5, 10, 30, and 60 minutes to assess the viability of the treated and control cells. All experiments were performed in triplicate. The activity of ClyS on various bacterial strains was tested as described previously (Schuch et al, 2002). Briefly, log phase bacterial cells were treated with 50 U of ClyS at 37° C. for 15 minutes. […]

S. aureus strain 8325-4 = experiment: ClyS activity as a function of pH and salt concentration; type: cell-based, Staphylococcus aureus; details: 50 U, 15 minutes
Protocol: The effect of pH on ClyS activity was determined as previously described using the universal buffer system pH 4-10 (Yoong et al). Briefly, log phase 8325-4 cells were resuspended in the universal buffer system and incubated with 50 U of ClyS for 15 minutes. The final pH of each reaction was checked by pH paper. The samples were serially diluted and plated. In controls, PB replaced ClyS.
Similarly the effect of salt concentration on the lytic activity of ClyS was determined by incubating 50 U of ClyS with log phase 8325-4 cells in PB containing NaCl at a final concentration of 25-500 mM for 15 minutes. The samples were serially diluted and plated to determine the viability counts.

[3] = test system: group A, B, C and E streptococci, S. gordonli, S. salivarius, S. uberis, Bacillus cereus, Pseudomonas aeruginosa and E. coli; experiment: Muralytic activity on bacterial strains, Set III; type: cell-based, mix of Gram-positive and Gram-negative bacteria; details: 50 U of ClyS, 15 minutes
Protocol: as §1, §2

S. simulans = experiment: Muralytic activity on bacterial strains, Set II; type: cell-based; details: 50 U of ClyS, 15 minutes
Protocol: as §1
(§3) The viability assay of ClyS was tested as previously described (Nelson et al, 2001). Briefly, log phase cultures of S. aureus strain 8325-4 were resuspended in PB to OD600 of 0.8-1.0. 50 U of ClyS or the corresponding volume of PB was added to bacterial cells and aliquots were removed, serially diluted, and plated at 1, 5, 10, 30, and 60 minutes to assess the viability of the treated and control cells. All experiments were performed in triplicate. The activity of ClyS on various bacterial strains was tested as described previously (Schuch et al, 2002). Briefly, log phase bacterial cells were treated with 50 U of ClyS at 37° C. for 15 minutes. The samples were serially diluted and plated. Control experiments with the addition of phosphate buffer (pH 7.0) were performed under the same conditions.

S. sciuri = experiment: Muralytic activity on bacterial strains, Set II; type: cell-based; details: 50 U of ClyS, 15 minutes
Protocol: as §1, §3

[4] = test system: S. epidermidis including the biofilm-forming strain RP62A; experiment: Muralytic activity on bacterial strains, Set II; type: cell-based; details: 50 U of ClyS, 15 minutes
Protocol: as §1, §3

MRSA (191-SM^R) = experiment: In vivo nasal decolonization of MRSA; set-up: species or system C57BL/6J mice; details: three hourly intranasal doses of ClyS (960 μg) 24 h post-infection; 1 h after last treatment; p<0.001 vs buffer
Description: Carriage of both MSSA and MRSA in the human anterior nares is the major reservoir for S. aureus infection. Studies have shown that roughly 80% of the population could be nasally colonized by S. aureus, and that colonization can be an increased risk factor for developing other more serious S. aureus infections (Kluytmans, J., A. van Belkum. 1997. Nasal carriage of Staphylococcus aureus: epidemiology, underlying mechanisms, and associated risks. Clin Microbiol Rev 10(3): 505-20). Elimination of nasal carriage in the community or in the hospital setting thus could possibly reduce the risk of infection and slow the spread of drug resistant S. aureus (Kluytmans et al. (1997)). To study the potential of ClyS to reduce MRSA colonization of the nasal mucosa, C57BL/6J mice were intranasally inoculated with ˜2×10^7 of a spontaneously streptomycin resistant strain of MRSA (191-SM^R). Twenty-four hours post-infection mice were administered three doses hourly of either phosphate buffered saline (control) or ClyS (960 μg) into the nasal passages. One hour after the last treatment, mice were sacrificed and bacteria colonies were enumerated on Spectra MRSA agar, (a selective chromogenic medium developed to diagnostically detect MRSA nasal colonization) and Columbia blood agar. […]

B1: ClyS: chimeric lysin: Twort lysin endopeptidase domain attached to the phiNM3 CWT domain, 280 amino acid residues (protein)
chain: METLKQAESYIKSKVNTGTDFDGLYGYQCMDLAVDYIYHVTDGKIRMWGNAKDAINNSFGGTATVYKNYPAFRPKYGDVVVWTTGNFATYGHIAIVTNPDPYGDLQYVTVLEQNWNGNGIYKTELATIRTHDYTGITHFIRPNFATESSVKKKDTKKKPKPSNRDGLNKDKIVYDRTNINYNMVLQGKSASKITVGSKAPYNLKWSKGAYFNAKIDGLGATSATRYGDNRTNYRFDVGQAVYAPGTLIYVFEIIDGWCRIYWNNHNEWIWHERLIVKEVF
modifications: Chimeric of Staphylococcus aureus bacteriophage Twort domain and Staphylococcus aureus phage phiNM3 CWT domain
notes: chimeric lysin: Twort lysin endopeptidase domain attached to the phiNM3 CWT domain, 280 amino acid residues
solubility [1]: very high | muralytic activity against MRSA [2]: active | muralytic activity against MSSA [2]: active | activity at physiological pH (S. aureus strain 8325-4): partial yet significant activity | activity at physiological salt concentrations (S. aureus strain 8325-4): functioned well | NaCl concentration above which activity deteriorated (S. aureus strain 8325-4; 25-500 mM NaCl in PB): above 400 mM | muralytic activity against Set III organisms [3]: no activity | muralytic activity against S. simulans (S. simulans): active | muralytic activity against S. sciuri (S. sciuri): active | muralytic activity against S. epidermidis [4]: active | mean CFU on the nasal mucosa (MRSA (191-SM^R)): 1198 CFU/cavity
